Experimental data as given in the supplement of paper PMC12042874.
± gives the uncertainty stated by the source.

Test: amyloid nucleation score (Sup35N fusion, yeast selection) (log enrichment); library NNK2; higher = more nucleation; inactive = no reads after selection
In short: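 Random libraries were run with three technical output replicates. In each, psi-negative yeast expressing Sup35N fused to peptides of 20 random codons were induced 24 hours with 100 μM copper sulfate and grown 7 days at 30°C on medium lacking adenine and uracil, and input and output plasmid inserts were Illumina-sequenced. The nucleation score is the DiMSum log enrichment of output over input reads, centred on the mode score of non-aggregating sequences, and sequences under 100 input reads were excluded.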

Substance | amyloid nucleation score
RRMVMVSANVSLIEQHYCRN | 5.552 ± 0.042
LPHKIM | 0.262 ± 0.53
MYEFQPRLDHRLFRYICMNV | -0.018 ± 1.1
SSKSHLSLLK | -0.849 ± 0.4
DTVNWCDSGVP | -0.023 ± 0.65
SIGPQRHLPYLLVFVYWTLS | 0.309 ± 0.8
KTGVGTYIPQWDCNGHEMVS | 0.423 ± 0.35
HCMLEYRMIVCVLVYAGYNM | 0.448 ± 0.47
WVSRTNELFGPDRLWIDLWH | -0.01 ± 1
FTTPVSFSFVLRLITTPRTY | -1.29 ± 0.75
FKASWVVRASNKDTHIHRGG | -0.144 ± 0.49
GKMGYFEWGVLDYIVRLSGT | 0.851 ± 0.27
DALDTRKLYN | inactive
TSMSYLLRFVCGFRCTYSLC | 0.854 ± 0.52
APSVLGAYQIHRGRVHVLSA | 0.494 ± 0.29
VWPLCGCAWRWSGKWGGTRW | 6.41 ± 0.077
RESTTRMSAGNVYRVTHKHS | 0.224 ± 0.4
IGFDFRTA | 0.418 ± 0.62
NNFWSNGG | -0.285 ± 0.48
NAVFVFSRWWYISNVVPQK | -1.48 ± 1.1
YYTCTLSRWRQSAYLGGRLR | 0.284 ± 0.26
YMKNSGHDMASLRNIYLIFR | 5.15 ± 0.075

Substance | amyloid nucleation score
VVPYS | inactive
YCAFSMYMFKGIIRYAICVV | -1.25 ± 0.38
HWFNSTRK | 0.187 ± 0.36
ILGISCVFY | 7.227 ± 0.072
GFIVRMDTMLSSALASYCRL | -0.25 ± 0.63
CSRRNRRIGVALRFIFLDIY | -0.956 ± 0.78
SWLSYSVRSM | inactive
KWNVFGDDGMREARLNLSGV | -0.69 ± 0.74
TFKFWCVTKETEQHVSYASR | 4.54 ± 0.067
GLSGFSPQFASATIAQSIP | 1.36 ± 0.23
TFNIGNELVT | -0.99 ± 0.37
LDYLDSVSINGIVQFKQMVW | -0.285 ± 0.26
CSFSIAFWKS | 0.714 ± 0.3
GFRFLLKLLFGFKKV | inactive
SYNLNSNRVESIDFSSIIIV | -0.459 ± 1.1
NTGWILPYCKRGNSALEGWL | 4.31 ± 0.056
FIICPSSDCNIRDIRRILTC | -0.967 ± 0.28
GFWVDQNSDPNWVSQAPDFM | inactive
FAGNAHGRRTG | 1.3 ± 0.31
YWSICPCCFLVSFSDTSWKG | 8.138 ± 0.057
ILNPFCTRFK | -2.26 ± 0.64
TVSRLYEYWLLRMCIY | -0.413 ± 1

Substance | amyloid nucleation score
YCYKSCCRDKLY | -0.072 ± 1.1
RRVGRYESWRNFSNEI | -0.835 ± 0.27
ETSMYVYLGI | -0.384 ± 0.35
VKTQSTVWSYR | 0.409 ± 0.28
CRKRGH | 1.33 ± 0.49
EWLIAW | 1.29 ± 0.25
LNDNSIGSVILFFSAFLLFY | 2.92 ± 0.12
IDSFDPGFRRHLDRSWIRRH | 0.105 ± 1.1
AVFRLFASVPGFNRRPGLEQ | 0.314 ± 0.25
HQMQACLVLG | 5.736 ± 0.053
SGSLSINDNSCYGENTNTVL | -1.21 ± 1.1
MSPVCLCCYLPTRVYCKVSG | 5.85 ± 0.084
LLLVRFAPISV | -0.176 ± 1.1
FAWNMLS | 0.285 ± 0.74
VTNYVEFCTGFRICGVSLPC | 8.387 ± 0.036
VCYLLFFKRSSYKFSINHYC | inactive
YCSLLL | 4.79 ± 0.074
DLWGTMKFNF | inactive
DLKYLGLA | -0.535 ± 0.53
VGRTVMKWACIVE | 4.878 ± 0.034
LPCFL | 1.93 ± 0.1
NFLMV | 0.75 ± 0.47

Substance | amyloid nucleation score
CHHTAYPMANFWQWLKGAMS | 0.069 ± 0.35
TVPRFEKHFRAVVNLLGRND | 0.277 ± 0.46
HCRKQIMMGDFKIQGNRGVG | 0.448 ± 0.66
VVVIGNFVSPRDIRFISMYT | 8.118 ± 0.047
HNLFNHIADNQGRGIEEKLT | -0.003 ± 1.1
FDNRNVSVSYPYNKMGNRVM | 2.57 ± 0.069
FGIGFGFLVHYDGRFWVYFG | inactive
KDYSGGIRHPVVPSGMISYL | -1.44 ± 1.1
SCRVRFNRSCAPGNSQIGMS | 8.674 ± 0.058
IYFYCGRCVSVFVHSFGMGL | 4.21 ± 0.05
FMSGRESAVCLFKNFSVLRS | 2.76 ± 0.084
VLFSRFDSVWHVAIAVSARV | 0.671 ± 0.42
RSFLLVLAELCFT | 4.22 ± 0.12
NVKSYKGQRFVAFGGGSVYA | 0.567 ± 0.32
DVLALFYSYCALN | 0.049 ± 1.1
CCKITDMAPNPVETWKYSKR | 0.786 ± 0.27
WRPLWSRAIFGS | inactive
LLPWHRIAWDAYCMWGMSSS | 0.266 ± 0.21
WVGYLRPKKESLCLGFEDSK | 3.04 ± 0.12
LSWYDLSVQWNLYNIVGRRV | 2.06 ± 0.078
